Source: publication PMC4610036 (Journal of molecular catalysis. B, Enzymatic, 2015)

Target: the molecule itself
Test: crystal structure

B1: β-ketoacyl thiolase B of Ralstonia eutropha (enzyme, UniProt Q0KBP1 1-394, looked up)
chain: MTREVVVVSGVRTAIGTFGGSLKDVAPAELGALVVREALARAQVSGDDVGHVVFGNVIQTEPRDMYLGRVAAVNGGVTINAPALTVNRLCGSGLQAIVSAAQTILLGDTDVAIGGGAESMSRAPYLAPAARWGARMGDAGLVDMMLGALHDPFHRIHMGVTAENVAKEYDISRAQQDEAALESHRRASAAIKAGYFKDQIVPVVSKGRKGDVTFDTDEHVRHDATIDDMTKLRPVFVKENGTVTAGNASGLNDAAAAVVMMERAEAERRGLKPLARLVSYGHAGVDPKAMGIGPVPATKIALERAGLQVSDLDVIEANEAFAAQACAVTKALGLDPAKVNPNGSGISLGHPIGATGALITVKALHELNRVQGRYALVTMCIGGGQGIAAIFERI
  stoichiometry N: 4
